Test results as given in paper PMC8567202, “Phosphoinositide-binding activity of Smad2 is essential for its function in TGF-β signaling” (The Journal of Biological Chemistry, 2021).
Substitutions are numbered along the chain they refer to. Names may count otherwise.

B1: Smad2-W422A: W422A mutant of full-length Smad2; specific PI(4,5)P2 binding-compromised (protein)
chain: MSSILPFTPPVVKRLLGWKKSAGGSGGAGGGEQNGQEEKWCEKAVKSLVKKLKKTGRLDELEKAITTQNCNTKCVTIPSTCSEIWGLSTANTVDQWDTTGLYSFSEQTRSLDGRLQVSHRKGLPHVIYCRLWRWPDLHSHHELKAIENCEYAFNLKKDEVCVNPYHYQRVETPVLPPVLVPRHTEILTELPPLDDYTHSIPENTNFPAGIEPQSNYIPETPPPGYISEDGETSDQQLNQSMDTGSPAELSPTTLSPVNHSLDLQPVTYSEPAFWCSIAYYELNQRVGETFHASQPSLTVDGFTDPSNSERFCLGLLSNVNRNATVEMTRRHIGRGVRLYYIGGEVFAECLSDSAIFVQSPNCNQRYGWHPATVCKIPPGCNLKIFNNQEFAALLAQSVNQGFEAVYQLTRMCTIRMSFVKGAGAEYRRQTVTSTPCWIELHLNGPLQWLDKVLTQMGSPSVRCSSMS
modifications: left off: His6, N-terminal, state not stated
B2: Smad2 WT: bacterially expressed full-length Smad2 wild-type (protein)
chain: B1 chain with A422W
modifications: left off: His6, N-terminal, state not stated
notes: bacterially expressed full-length Smad2 wild-type
B3: Smad2-K420A: K420A mutant of full-length Smad2; predominantly TβRI binding-compromised (protein)
chain: B1 chain with K420A, A422W
modifications: left off: His6, N-terminal, state not stated
B4: EGFP-Smad2 WT: mouse EGFP-Smad2 wild type transfected into HeLa cells (protein, UniProt Q62432 2-467, looked up)
Mothers against …: SSILPFTPPVVKRLLGWKKSAGGSGGAGGGEQNGQEEKWCEKAVKSLVKKLKKTGRLDELEKAITTQNCNTKCVTIPSTCSEIWGLSTANTVDQWDTTGLYSFSEQTRSLDGRLQVSHRKGLPHVIYCRLWRWPDLHSHHELKAIENCEYAFNLKKDEVCVNPYHYQRVETPVLPPVLVPRHTEILTELPPLDDYTHSIPENTNFPAGIEPQSNYIPETPPPGYISEDGETSDQQLNQSMDTGSPAELSPTTLSPVNHSLDLQPVTYSEPAFWCSIAYYELNQRVGETFHASQPSLTVDGFTDPSNSERFCLGLLSNVNRNATVEMTRRHIGRGVRLYYIGGEVFAECLSDSAIFVQSPNCNQRYGWHPATVCKIPPGCNLKIFNNQEFAALLAQSVNQGFEAVYQLTRMCTIRMSFVKGWGAEYRRQTVTSTPCWIELHLNGPLQWLDKVLTQMGSPSVRCSSMS
modifications: EGFP fusion
notes: mouse EGFP-Smad2 wild type transfected into HeLa cells

Tested on: HeLa cells
Assay: TIRF imaging of PM localization of EGFP-Smad2
Type: cell-based
Settings: for PM localization after TGF-β stimulation: HeLa cells with endogenous Smad2 suppressed
Experimental: Figure 4 Quantitative imaging analyses of spatiotemporal dynamics of Smad2.A, TIRF images of mouse EGFP-Smad2-WT transfected into HeLa cells whose endogenous Smad2 is suppressed by siRNA. Images were taken before and 5 min after TGF-β stimulation (10 ng/ml) with and without PI(4,5)P2 depletion. A pseudo-coloring scheme was used with orange and blue representing the highest and the lowest intensity, respectively. B, kinetics of TGF-β stimulated (10 ng/ml) PM localization of EGFP-Smad2-WT (blue), -K420A (green), and -W422A (orange) transfected into HeLa cells the endogenous Smad2 of which was suppressed by siRNA. For EGFP-Smad2-WT, the effect of PI(4,5)P2 depletion (black) and TβRI inhibition by SB-431542 (10 μM for 36 h) (red) were measured. Data points indicate average ±S.D. (n = 10 cells). C, spatially resolved PM PI(4,5)P2 concentration ([PI(4,5)P2]) profiles calculated from two-channel cross-sectional images of HeLa cells (before and 5 min after 10 ng/ml TGF-β stimulation and after PI(4,5)P2 depletion). Each cell is a representative of more than ten cells analyzed. Spatially averaged [PI(4,5)P2] values for each cell type are shown. The z-axis scale indicates [PI(4,5)P2] in mol%. A pseudo-coloring scheme with red and blue representing the highest (1.5 mol%) and the lowest (0 mol%) concentration, respectively, is used to illustrate the spatial [PI(4,5)P2] heterogeneity. Scale bars indicate 10 μm. D, dual color single-molecule tracking of EGFP-PLCδ-PH and SNAP-TMR-labeled TβRI at the PM of HeLa cells. Time courses of the half-life of colocalization for SNAP-TMR-labeled TβRI and EGFP-PLCδ-PH after 10 ng/ml TGF-β stimulation were determined with (orange) and without (blue) PI(4,5)P2 depletion. Data points indicate average ±S.D. (n = 10 cells). E, time courses of the half-life of colocalization for SNAP-TMR-labeled TβRI and EGFP-Smad2 determined by dual color single-molecule tracking analysis. Colocalization of TβRI with EGFP-Smad2-WT (blue), -K420A (green), -W422A (orange), E425K (red), Y426A (cyan), and -R427A/R428A (black) transfected into HeLa cells whose endogenous Smad2 was suppressed by siRNA is shown. For EGFP-Smad2-WT, the effect of PI(4,5)P2 depletion (purple) was measured. Data points indicate average ±S.D. (n = 10 cells). […] TEXT PRINTED IN THE PICTURE: (C) PI(4,5)P2: [PI(4,5)P2] = 1.05 ± 0.20 mol% (HeLa unstimulated); [PI(4,5)P2] = 1.00 ± 0.40 mol% (HeLa 5 min after TGFβ); [PI(4,5)P2] = 0.16 ± 0.08 mol% (HeLa After PI(4,5)P2 depletion) DOUBTS OF THE COPYIST ABOUT THIS PICTURE: Panel C: the printed values are measured membrane concentrations of PI(4,5)P2 in HeLa cells under three conditions, not an activity or property of a compound; it is uncertain whether they count as a result for a substance
Quantitative TIRF microscopy imaging of PM localization of EGFP tagged Smad2 WT and mutants was performed using custom-built internal reflection fluorescence microscope. WT HeLa cells or PI(4,5)P2 depleted HeLa cells were plated on the 8-well chambered cover glass (Lab-Tek, Thermo Fisher Scientific) at the density of 1 × 10^5 for 24 h. Endogenous Smad2 was suppressed using SiRNA and EGFP-Smad2 or mutants were transfected into cells using the jetPRIME system (Polyplus-transfection) according to the manufacturer's protocols. The transfected HeLa cells were serum starved for 16 h prior imaging. PM-bound EGFP-Smad2 fraction was monitored before and after stimulation with 10 ng/ml TGF-β up to 15 min. For EGFP-Smad2 WT, the effect of TβRI inhibition was monitored by incubating cells with 10 μM of SB-431542 for 36 h. Image analysis was performed using Image J software. Mean intensity of the EGFP-Smad2 signal was calculated for each time point, and final graph was plot by subtracting the mean intensity at 0 min from the mean intensity of each time point. More than ten cells were analyzed for each data point.

Molecule | PM localization after TGF-β stimulation (10 ng/ml TGF-β) | time of peak PM translocation after TGF-β stimulation (HeLa cells, 10 ng/ml TGF-β) [min] | PM translocation after PI(4,5)P2 depletion (HeLa cells, rapamycin-induced Inp54 recruitment) | PM residence / dissociation of Smad2 (HeLa cells, 10 ng/ml TGF-β, SB-431542 10 μM for 36 h where used)
B1 | little PM localization |  |  | 
B2 |  | 5 | abrogated | 
B3 | able to migrate to the PM as fast as WT |  |  | slow dissociation
B4 | clearly visible |  |  | 
